# Test results reported in the DeepSol protein solubility set.
# Test: soluble on expression in E. coli; label from the status in PepcDB or PDB records
row,Sequence,soluble on expression in E. coli
1,LLTPQYISEAKIYVLSKETTLTSLADLQMGTQLTQDYKELIGSRPVMQEVINTLNLDITYRQLAEKLKLENPKDTRILYLTVTDPNPYMAKAIVDEIANAASDYIGEIMEMTPPKLIEDGMVATVQTSPNVKKN,not soluble
2,GMMQKPITEIIIVGGGTAGWITAGLLAAEHNVDKGVLAHSPKLNITLIESPDVATIGVGEGTWPSMRSTLSKIGIDENDFIRQCDASFKQGSRFINWCKDPQSNVADSYLHPFSLPHGHQELDLCPYWLPHAEQVSFAEAVCSQQVLTQLGLAPKSIVTAQYHFQNNYGYHLNAAKFSQLLTEHCTQKLGVTHIRDHVSQIINNQHGDIEKLITKQNGEISGQLFIDCTGAKSLLLGEHLQVPFLSQKSVLFNDRALAIQVPYSDANSPIASCTHSTAQPNGWIWDIGLPTRKGVGYVYSSSHTNDIDAQKTLFNYLGVDGAAADKLEPRQLAINPGYRAKCWQNNCIAIGMAAGFIEPLEASALALIEWTASTLAQQLPPNRMVMDTISARVNERYQQHWQQIIDFLKLHYVISQRQEDRYWRDHRESNSIPDSLQAMLELWRYQTPSQQDISYKEALFPAASFQYVLYGMSFNTQLPTHVKPSMQQLAQRLFNDNQQRTQALSKNLPTNRELLDKVAQYGFPKL,soluble
3,MGSDKIHHHHHHMPGLPRASGSRFSRRLWSNLTWSGLLSMAVMPRHTSIARPPHGMMDPSGTTVWSYDTQGRIIGKTQVVDGASLVTSYVYDGDGRLASLTYPSGEVINYSWSNGQLTGIFRGTSLIASGITCHPFGPVKSWTLDNGQNIVRNFDLDGRITSYSLGSLAYDAASRITGISRGGISILGNSKTYGYDATDRLISFSDGTSAETYAYDASGNRTGQTINGMAYTYSVSYASNRLDAMAGPGSSLHYSYDANGSLVNDGQRSFGYDASGRLSEAVGLASYSFNGLGQRVKKNAGTVIMFVFDEGGQLIGEYGAAGNPIQETVWLDDVPLAVLRYGTTYYIHTDHLNTPPADS,not soluble
4,MMKNDEQDDVDVVNVPTNIDFQCNLCEYVGKSDRSLSAHKRHRHPRPEGQEDDKKPRGRPKKYEDSPVPLQRVTTKQLLGGRKRPKTIVECVDDSAIRTDKEASRLHGLGIIDEETSLGDYVRRGANYQLMGGSDMNLDGNSMIVGQEVVIDHEEDEENDDSPMLDSIPAGKNLERRKIRKSGRACASIRLSAKNRQISRSSHMRKVHPNEHAERKRNAPGYNSNGTYNCHFPLCQWRGWSRSTRSTHLRKAHPEWRPDDNRVMTVLSCFYCKSSFHTYAQLADHTITHGGLALMISQSFDNKHHFSAWLQQMERVYSVTFERSEFGSDPELQDLHNYVLHCDCVGGRGEQLATDSRAYIDQKHTNFKFSGAYIYQKHNFLKRRHPQLLTRNKNDCCVHLEVREDSEYGPIHVKGTLEHTGHRFGTPLLRMLFEGFTMDHYTTPRSVILMEPLHTNQFQSLREFIEAPSTSTYQNPYFSVDFGDSPEQFSFGYMSDEMQKLWSKYAPGRTITIDSSPLEFGEVDLFQYSVIVTDENYIPKCAMIYVTTDNSRAPHTILRQMKAVEPRPPTIFMVDPSQLWVELIQDLWPTDLDNPESEVTILISEWTLMDYWAAKTEELVKNEFDVFCIVTALRRMLRVEDAHQLYYTIVELFEAFFECGYDGLAEFFDAQLSDMEYFKRWGPLHRTTLTSHAHPTLGASFRILRDWYLNPANMDHDAPRVDQWFSHICQRIEDFNAITNTQTYTLRPLDPPHKFFYTTVEDEEGEEAEHENPFKNPQILMYDDDGDEVVVEEEIIGHEIDGASELQGSELPDEEVIYETYEDYPEYGGHYDLEEEHKMHHNMRLEEEELQQHLHEQQKPEHLSHQTEELGELQDHHHHHHHHLDEDPEATAEGPSEIVEHDDEEEQEDLVDVEMVDDQHEQHEIPAKIPPHRQRLYQKLDPMPVISHELPRSPSRRIRIPTRKIQELDQESVLPPPPRRETTRSVVRSRKRRDRFAELRDCPPEVMRAIAAHAIAYDGRKKEQRPIVYVPRQAKMAMSSTPTAPTPPEDYDGPPGHQMTTILQHQRQAKQEEEEEQWSGEYDDELHEQEHDPATSSPPPSLLPHTGPSEIVHHEEEVHMMLPEEEADLMDDDDQQPCTSASMYR,soluble
5,MAITAQMVKELREKTGAGMMDCKKALTETNGDMEKAIDFLREKGIAKAAKKADRIAAEGLTFIETNGNDGLILELNSETDFVAKNEGFQTLIKELAAHLLANKPANVEEAMAQTMENGKKVEEHINEAIAKIGEKLTLRRFEIVSKTDADAFGAYLHMGGRIGVLTVLEGSTDEAAAKDVAMHIAAVNPKYIDRDAVTAEEVEHERQVLTQQALNEGKPEKIVAKMVEGRLGKFFEEICLLDQAFVKNPDMKVRQFVESKGGTLKGFVRYAVGEGIEKREDNFAEEVMNQVKGSN,not soluble
6,MAHHHHHHMCATSKENTPEFYKKYVKDIIDRIEDNARREFEAIWRDHESHPGMSKTLISDTLSEKNVKVRANILASDVFKNKKLVRYILFHYTPKTLLEVVPVDELMNRVPIAYQHAICAMWLASEYVYSTGIDSNEFDFFSFMSAHIERASAMAKEQSR,soluble
7,MSAEAVAAAPIAEEATPVVYYSIESNDRVVLKISEQAIKQSATLSNSITNLGYSAENAESMVPIPIEKVNGKTLKLVVEWCEHHKADPVPEAYPSGNTVLPVWDRKFVDIEHDALTDLVNASNFLEVMTLLTYCCKFIAGLAKGMSPEEMRVFFCIPTDEEDEKAERFGKEKTEASATSADTTA,not soluble
8,MCGIIGFMSRTGRLISGDRIATALNCLKERGNGEGSGYVGYGIYPDYKDDYAIHVFLDATKDYDRIRHEVEEVLVKYGYILKDEEIPTEEGIIKQEQVSWRFFYRFDEKYKTVEEDLMVDIVMDINAKIDGAFVFSSGKNMGVFKAAAWPLEVAEYFKIDQYKGFQWLSHARYPTNTKGWWGGAHPFNLLGWSVVHNGEITSYGANKRYVESFGYKCKLLTDTEVVAYLFDLLIRKHKIPVEYAMSALAPRFWDEIEIMSEEDKKIHEAIRMTYGGATMNGPFGIVVGTQEGMVFMNGEVEEGNTMVGLTDRIKLRPLVAAEKDDLLFVSSEESAIRKICPELDRVWMPDAGRMVIAKLEKKI,not soluble
9,MGSDKIHHHHHHQTAEPPKTVRPDQLAFRDLYKELVEINTTLSVGSCTAASEAMGARLKAAGFPEADVRVVVEPKHPREGNLVAVLRGTDATTKPMLLLAHIDVVEAKREDWTRDPFKLVEENGYFYGRGTSDDKAQAAIWVDSLIRLKQAGFKPKRDIKMALTCGEESEGYNGIEDLLKNHRPLVDAEFALNEGASGLLDEQGKAVMLEVQAGEKVYQDFTLTVTNPGGHSSRPVSPNAIYQLSAALDRIGAYQFPPRFNDATRGYFTQMQARVTPEQAAAMKTLVADVNDPAALALITKDRTWNSMLRTTCVATMVSAGHAPNALPQRATANINCRILPGTPIDEVKAKLTELAADPAVAVTLAHSSKPASPPPPLTPAIMAPIQKNAAKLWPGVPILPVMSTGATDAVHTSAAGIPTYGVTGLFHGPEGTGAHGLNERMRVKSLYEGRDFLHGLIQDYAGGK,not soluble
10,MGSDKIHHHHHHMNSSHGTSSSGASAGAHGALPLEAQKLNGWGRTAPTTAEVLTTPDLDIIVDAVRQVAEQNDSKPDYLKRGVIARGMGRSYGDPAQNAGGLVIDMQPLNKIHSIDPDSAIVDVDGGVTLDQLMKAALPYGLWVPVLPGTRQVTIGGAIGPDIHGKNHHSAGSFGDHVVSMELLVADGRILHLEPEGTAEDPQGDLFWATVGGMGLTGIIVRARIRMTKTETAYFIADTDRTNNLEETVAFHSDGSEHNYTYSSAWFDVISPEPKLGRSTISRGSLATLAQLEELAPKLAKDPLKFNAPQLMKVPDIFPSWTLNKLTLSAVGVAYYAMGAPAKNQVKNLTQFYQPLDLIGEWNRGYGSKGFLQYQFVVPTEAVEPFKDIIRDMQKSGHYSALNVFKLFGPGNRAPLSYPMPGWNVCVDFPIRPGLGAFLDDLDKRVMEFGGRLYLAKESRTSAENFHAMYPGMEGWLKTRNEIDPTGVFASDMSRRLELS,not soluble
11,MSLSISFNNIPSALRVPLTYIEFDNTKAVSGPPTALHKVLMLGTKLATGSAKAGEAVRVSAYAQAKTLFGRGSQLAEMVKTFKAHNSTLDLWVLPLDEAPSGAKATGSVQITGTATQAGTFSLMIAGNNYKTAVTSGDTADVVAGKLQKLIAADQDVPVVATVAGNTITLTCRFKGETGNEIDLRCNYYSGEAFPEGLKATITDMKNGAVNPDMSVAITGLGAEWWNYIINPFTDTESLNLLRADLVKRWGPLKQIDGICFMAKRGTHAEVTTFAEQRNDYLFSLLATHKAPQPAYLWASAYAAVVAGSLAIDPARPVQTLVMDLLPPSMSDRWDLPERNTLLYSGVSTYTVNAGSQPQVEAAITMYRKNAFGDNDESYLYVETIATLSYLRYAIRSRITQKFPRHKLANDGTRIGPGQAIVTPKIIRNELLALFTELEFAGLVEDFEQFNQTLFVERDSNNPCRVNVLSNENLVNQFRIYAHAIQFILEGHHHHHH,soluble
12,MGSDKIHHHHHHAISVGNLTFSLPAEADFASKRVVNNNKSARLYRIAVSAIDRPGGSEVRSRPVDGELLFAPRQLVLQAGESEYFKFYYHGPRDNRERYYRVSFREIPTRNLTRRSPTGGEVSMEPVVVMDTILVVRPREVQFKWSFDKVAGTVSNTGNTWFKLLIKPGCDSTEEEGDAWYLRPGDVVRQPALRQPGNHYLVYNDKFIKISDTCPLKPRPAE,not soluble
13,MSLGKGVRDPGSDGSLRRKELAMIKVEDMMTRHPHTLLRTHTLNDAKHLMEALDIRHVPIVDANKKLLGIVSQRDLLAAQESSLQRSAQGDSLAFETPLFEVMHTDVTSVAPQAGLKESAIYMQKHKIGCLPVVAKDVLVGIITDSDFVTIAINLLELQEESEPDELDEEQEGGSHHHHHH,soluble
14,ALYNVDAGHRAVIFDRFRGVQDIVVGEGTHFLIPWVQKPIIFDCRSRPRNVPVITGSKDLQNVNITLRILFRPVASQLPRIFTSIGEDYDERVLPSITTEILKSVVARFDAGELITQRELVSRQVSDDLTERAATFGLILDDVSLTHLTFGKEFTEAVEAKQVAQQEAERARFVVEKAEQQKKAAIISAEGDSKAAELIANSLATAGDGLIELRKLEAAEDIAYQLSRSRNITYLPAGQSVLLQLPQ,not soluble
15,MAQHPPYCRNQPGKCQIPLRDLFDRAVVLSHYIHNLSSEMFSEFDKRYTHGRGFITKAINSCHTSSLATPEDKEQAQQMNQKDFLSLIVSILRSWNEPLYHLVTEVRGMQEAPEAILSKAVEIEEQTKRLLEGMELIVSQVHPETKENEIYPVWSGLPSLQMADEESRLSAYYNLLHCLRRDSHKIDNYLKLLKCRIIHNNNC,soluble
16,MGSDKIHHHHHHMSMNHIRPWRNIERRKSRQIHVGNVPVGGDAPIAVQTMTNTLTTDIKGTIAQVQAAADAGADIVRVSVPDEASARALKEIVRESPVPIVADIHFHYKRGIEAAEAGAACLRINPGNIGDEKRVAEVIKAARDHNCSIRIGVNAGSLEKHLLEKYGEPCPDAMVESGLDHIKILQDHDFHEFKISVKASDVFMSAAAYQMLADATDAPIHLGITEAGGLMSGTIKSAIGLGQLLWMGIGDTLRVSLSADPVEEVKVGFEILKSLGLRHRGVNIISCPSCARQGFDVIKTVETLEERLEHIKTPMSLSIIGCVVNGPGEALMTDVGFTGGGAGSGMVYLAGKASHKMSNDQMIDHIVEEVEKKAAALDAQAAEDMKAAE,not soluble
